From PMC11109957

Molecular target: OGG1 (UniProt O15527)
Experiment: co-IP, Western blot
Conditions: reference: wild type, KBrO3; sites S46,S53

Substance: SIRT2 (from UniProt Q8IXJ6) S46AS53A, KBrO3
- binding against the reference: weaker
